T1: recombinant murine chordin (murine, UniProt Q9Z0E2 27-948, limits assumed)
T1 sequence (looked up): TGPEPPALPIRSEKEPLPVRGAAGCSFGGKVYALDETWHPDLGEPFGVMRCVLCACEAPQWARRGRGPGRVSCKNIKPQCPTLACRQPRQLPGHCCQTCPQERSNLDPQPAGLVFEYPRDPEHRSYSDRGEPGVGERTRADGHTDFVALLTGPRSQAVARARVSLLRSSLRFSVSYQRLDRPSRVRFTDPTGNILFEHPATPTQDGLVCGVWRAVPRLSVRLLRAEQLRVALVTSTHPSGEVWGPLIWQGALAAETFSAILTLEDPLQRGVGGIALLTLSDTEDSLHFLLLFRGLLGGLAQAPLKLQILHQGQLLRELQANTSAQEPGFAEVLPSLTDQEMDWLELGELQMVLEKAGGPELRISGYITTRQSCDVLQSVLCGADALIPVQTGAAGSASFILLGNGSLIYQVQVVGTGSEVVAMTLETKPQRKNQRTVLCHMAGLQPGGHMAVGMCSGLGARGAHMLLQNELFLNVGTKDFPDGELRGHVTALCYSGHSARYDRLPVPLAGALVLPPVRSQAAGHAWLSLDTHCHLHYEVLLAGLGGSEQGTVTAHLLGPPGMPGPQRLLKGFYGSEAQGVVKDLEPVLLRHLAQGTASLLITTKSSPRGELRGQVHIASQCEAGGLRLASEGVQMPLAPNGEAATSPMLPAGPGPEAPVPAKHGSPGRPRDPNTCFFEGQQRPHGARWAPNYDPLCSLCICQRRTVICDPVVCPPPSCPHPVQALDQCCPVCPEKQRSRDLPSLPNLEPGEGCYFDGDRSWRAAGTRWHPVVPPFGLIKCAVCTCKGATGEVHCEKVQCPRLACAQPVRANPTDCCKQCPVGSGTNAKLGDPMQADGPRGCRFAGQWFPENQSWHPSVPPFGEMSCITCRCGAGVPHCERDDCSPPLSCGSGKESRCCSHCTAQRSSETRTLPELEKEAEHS

T2: Noggin-Fc fusion protein (murine, UniProt P97466 28-232, limits assumed)
T2 construct: also called recombinant murine noggin; not shown: Fc portion, captured and detected with anti-human Fc antibodies
T2 sequence (looked up): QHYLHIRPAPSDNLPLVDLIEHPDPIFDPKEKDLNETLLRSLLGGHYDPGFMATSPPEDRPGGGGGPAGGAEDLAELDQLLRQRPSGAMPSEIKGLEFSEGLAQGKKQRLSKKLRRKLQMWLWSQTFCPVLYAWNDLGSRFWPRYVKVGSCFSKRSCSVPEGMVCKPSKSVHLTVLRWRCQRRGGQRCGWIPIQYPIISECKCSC

B1: purified human sclerostin-FLAG® fusion protein (other, UniProt Q9BQB4 24-213, looked up)
chain: QGWQAFKNDATEIIPELGEYPEPPPELENNKTMNRAENGGRPPHHPFETKDVSEYSCRELHFTRYVTDGPCRSAKPVTELVCSGQCGPARLLPNAIGRGKWWRPSGPDFRCIPDRYRAQRVQLLCPGGEAPRARKVRLVASCKCKRLTRFHNQSELKDFGTEAARPQKGRKPRPRARSAKANQAELENAY
notes: Immobilised on CM5 chips (200 and 400 RU) or on anti-FLAG M2 agarose beads; also called FLAG®-Beer; FLAG®-tagged sclerostin; not shown: FLAG tag
B2: BMP-2 (ligand)
chain: QAKHKQRKRLKSSCKRHPLYVDFSDVGWNDWIVAPPGYHAFYCHGECPFPLADHLNSTNHAIVQTLVNSVNSKIPKACCVPTELSAISMLYLDENEKVVLKNYQDMVVEGCGCR
modifications: Disulfide-linked homodimer; one copy of the mature chain is given.
notes: Bought recombinant protein; also called recombinant BMP protein (R&D Systems)

Tests used:
[1] = target: purified human sclerostin-FLAG® fusion protein (human) (UniProt Q9BQB4); experiment: SPR (Biacore), immobilised sclerostin
[2] = target: T1, recombinant murine chordin; experiment: SPR (Biacore), human sclerostin immobilised on the chip, rmChordin injected at 0.62 to 10 ug/ml [box under the left panel]
[3] = target: T1, recombinant murine chordin; experiment: SPR, chip-immobilised recombinant human sclerostin, graded concentrations of recombinant murine chordin (FIG. 2A)
Protocol: (§1) The running buffer for Biacore analysis was HBS-EP CMD (10 mM HEPES, 150 mM NaCl, 3 mM EDTA, 0.005% polysorbate 20, and 1 mg/ml carboxyl-methyl dextran). […] The data was processed using the Bia-evaluation software by first correcting for background binding in a non-functionalized flow cell and analyzing the resulting binding curves for on/off rates.

Noggin-Fc fusion protein [4] = target: T2, Noggin-Fc fusion protein; experiment: SPR (Biacore), human sclerostin immobilised on the chip, rmNoggin injected at 0.31 to 10 ug/ml [box under the right panel]
Noggin-Fc fusion protein [5] = target: T2, Noggin-Fc fusion protein; experiment: SPR, chip-immobilised recombinant human sclerostin, graded concentrations of recombinant murine noggin (FIG. 2B)
Protocol: as §1

[6] = target: B1; experiment: SPR (Biacore), immobilised sclerostin
Protocol: The running buffer for Biacore analysis was HBS-EP CMD (10 mM HEPES, 150 mM NaCl, 3 mM EDTA, 0.005 % polysorbate 20, and 1 mg/ml carboxyl-methyl dextran). […] BMP proteins were diluted in running buffer and injected over the sensor chip using the Biacore 3000 instrumentation. The data was processed using the Bia-evaluation software (Biacore) by first correcting for background binding in a non-functionalized flow cell and analyzing the resulting binding curves for on/off rates.

With BMP-5 (ligand) the Kd [1] was < 15 nM.

BMP-4 (ligand) was tested, and the Kd [1] was < 15 nM.

With BMP-7 (ligand) the Kd [1] was < 15 nM.

For B1, the koff [2] was 0.00209 s⁻¹, the kon [2] was 1.18e+06 M⁻¹ s⁻¹ and the Kd [3] was 1.76 nM. It also gave a koff (Noggin-Fc fusion protein [4]) of 0.00435 s⁻¹, a kon (Noggin-Fc fusion protein [4]) of 1.46e+06 M⁻¹ s⁻¹ and a Kd (Noggin-Fc fusion protein [5]) of 2.92 nM.

With B2 the Kd [6] was < 10 nM.

Source: patent US20050085418A1 (CELLTECH R AND D, published 2005)
